Substitutions are numbered along the chain they refer to. Numbers in names are those of the source. Bridge positions count the residues as written; N and C are the ends. Square brackets hold non-standard residues; d marks the D form. Primed or numbered codes have the meaning given here. Ends that are not written are not given here. 5/6FAM = 5/6-carboxyfluorescein; S5 = C=CCCC[C@](C)(N)C(=O)O; PEG3′ = not defined here
Columns and labels:
[1] = target: T1, MBP-tagged RocCOR LRRK2 (wild type); assay: FP
T1 chain: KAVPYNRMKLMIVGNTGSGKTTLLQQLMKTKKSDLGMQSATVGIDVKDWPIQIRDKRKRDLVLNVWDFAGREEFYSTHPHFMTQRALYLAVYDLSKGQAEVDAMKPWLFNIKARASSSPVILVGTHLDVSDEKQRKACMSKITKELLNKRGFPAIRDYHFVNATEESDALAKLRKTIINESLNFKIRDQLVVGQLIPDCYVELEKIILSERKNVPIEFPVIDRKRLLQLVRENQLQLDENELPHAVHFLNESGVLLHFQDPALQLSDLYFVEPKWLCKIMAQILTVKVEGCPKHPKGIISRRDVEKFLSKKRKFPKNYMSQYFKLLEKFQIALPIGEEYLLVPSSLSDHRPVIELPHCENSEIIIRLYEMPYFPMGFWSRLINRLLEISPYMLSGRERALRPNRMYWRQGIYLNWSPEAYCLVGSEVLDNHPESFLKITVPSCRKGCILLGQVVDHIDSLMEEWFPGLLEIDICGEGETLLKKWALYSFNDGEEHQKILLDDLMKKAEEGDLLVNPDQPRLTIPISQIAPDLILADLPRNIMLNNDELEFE

[2] = target: T2, MBP-tagged R1441C RocCOR LRRK2; assay: FP
T2 chain: T1 chain with R114C

In the case of {5/6FAM-PEG3′}-KGEGE[S5]LLK[S5]WGLYSFNDGEKH[S5]KKL[S5]KL (staple 6-10, 23-27) [FAM ECOR A12G (doubly stapled Elongated COR peptide with A12G)], the Kd [1] is reported as 57 nM and the Kd [2] is reported as 32 nM.

In the case of {FAM-PEG3′}-KGEGE[S5]LLK[S5]WALYSFNDGEKH[S5]KKL[S5]KL (staple 6-10, 23-27) [FAM ECOR (doubly stapled Elongated COR peptide)], the Kd [1] is reported as 45 nM and the Kd [2] is reported as 24 nM.

From article PMC10251477 (2023)
